Reference: publication PMC4383175

Columns and labels:
[1] = molecular target: Trypanosoma brucei haptoglobin-haemoglobin receptor, truncated N-terminal ligand-binding domain (residues 36-299) (Trypanosoma brucei brucei) (UniProt Q581F2); test: SPR
[2] = molecular target: Native (dimeric) human haptoglobin-haemoglobin complex (Hp 1-1 with Hb) (human) (UniProt P00738); test: SEC-MALS
[3] = molecular target: Native (dimeric) human haptoglobin-haemoglobin complex (Hp 1-1 with Hb) (human) (UniProt P00738); test: SEC-SAXS

Work on “HpSPHb complex: serine protease domain of human haptoglobin (148-406) bound to a human haemoglobin alpha-beta dimer (from UniProt P00738 148-406)” yielded a Kd [1] of 0.7 µM.
In the case of “HprSPHb complex: serine protease domain of human haptoglobin-related protein (90-348) bound to human haemoglobin (from UniProt P00739 90-348)”, the Kd [1] is reported as 1.7 µM.
Work on “Trypanosoma brucei haptoglobin-haemoglobin receptor, truncated N-terminal ligand-binding domain (residues 36-299) (from UniProt Q581F2 36-299)” yielded a stoichiometry N (receptors per HpHb) [2] of 2 and a stoichiometry N (receptors per HpHb) [3] of 2.
